Reference: article PMC6347577 (Journal of the American Chemical Society, 2018)

Biological target: the molecule itself
Assay: native MS

B1: hepatitis B virus (HBV) capsid protein Cp149 (truncated form containing only the assembly domain), dimer (domain or fragment)
chain: MDIDPYKEFGATVELLSFLPSDFFPSVRDLLDTAAALYRDALESPEHCSPHHTALRQAILCWGDLMTLATWVGTNLEDPASRDLVVSYVNTNVGLKFRQLLWFHISCLTFGRETVLEYLVSFGVWIRTPPAYRPPNAPILSTLPETTVV
B1 was tested, and the “stoichiometry N” value was about 90 dimers.
